Assay results: patent publication US20170368189

Key:
[1] = molecular target: T1, Permanent Lys26 CNP-38 PEG4x10 kDa conjugate 12g (not fully specified)
T1 chain: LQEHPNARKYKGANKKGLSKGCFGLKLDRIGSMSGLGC

[2] = molecular target: T2, Permanent N-terminal CNP-34 PEG 5 kDa conjugate 14e (not fully specified)
T2 chain: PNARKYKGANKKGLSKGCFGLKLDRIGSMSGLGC

[3] = molecular target: T3, Permanent N-terminal CNP-38 PEG 5 kDa conjugate 15e (not fully specified)
T3 chain: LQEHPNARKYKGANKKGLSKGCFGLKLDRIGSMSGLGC

Measured: half life norm. [h] (in vitro NEP digest)

B1: recombinant human Neutral Endopeptidase (NEP) (protein)
chain: YDDGICKSSDCIKSAARLIQNMDATTEPCTDFFKYACGGWLKRNVIPETSSRYGNFDILRDELEVVLKDVLQEPKTEDIVAVQKAKALYRSCINESAIDSRGGEPLLKLLPDIYGWPVATENWEQKYGASWTAEKAIAQLNSKYGKKVLINLFVGTDDKNSVNHVIHIDQPRLGLPSRDYYECTGIYKEACTAYVDFMISVARLIRQEERLPIDENQLALEMNKVMELEKEIANATAKPEDRNDPMLLYNKMTLAQIQNNFSLEINGKPFSWLNFTNEIMSTVNISITNEEDVVVYAPEYLTKLKPILTKYSARDLQNLMSWRFIMDLVSSLSRTYKESRNAFRKALYGTTSETATWRRCANYVNGNMENAVGRLYVEAAFAGESKHVVEDLIAQIREVFIQTLDDLTWMDAETKKRAEEKALAIKERIGYPDDIVSNDNKLNNEYLELNYKEDEYFENIIQNLKFSQSKQLKKLREKVDKDEWISGAAVVNAFYSSGRNQIVFPAGILQPPFFSAQQSNSLNYGGIGMVIGHEITHGFDDNGRNFNKDGDLVDWWTQQSASNFKEQSQCMVYQYGNFSWDLAGGQHLNGINTLGENIADNGGLGQAYRAYQNYIKKNGEEKLLPGLDLNHKQLFFLNFAQVWCGTYRPEYAVNSIKTDVHSPGNFRIIGTLQNSAEFSEAFHCRKNSYMNPEKKCRVW
Almost no proteolysis after 4 days.: all assays above
